Here are results for one molecule from PMC4462998.

The target in the experiment is FtsQ (Escherichia coli), P06136. The experiment is described as follows: not stated; unpublished results (Luirink and den Blaauwen); method not given. To be noted: remark: other sources report otherwise.
Chain of FtsQ (Escherichia coli), P06136 (P06136 whole entry): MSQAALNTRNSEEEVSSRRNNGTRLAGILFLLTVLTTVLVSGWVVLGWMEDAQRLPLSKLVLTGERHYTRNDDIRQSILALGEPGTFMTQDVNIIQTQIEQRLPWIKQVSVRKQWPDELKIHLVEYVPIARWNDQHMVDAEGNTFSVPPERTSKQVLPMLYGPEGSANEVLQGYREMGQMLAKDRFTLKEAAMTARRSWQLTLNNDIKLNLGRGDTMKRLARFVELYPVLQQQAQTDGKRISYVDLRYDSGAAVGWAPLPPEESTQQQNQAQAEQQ

B1: FtsL, P0AEN4 1-121 (natural protein)
chain: MISRVTEALSKVKGSMGSHERHALPGVIGDDLLRFGKLPLCLFICIILTAVTVVTTAHHTRLLTAQREQLVLERDALDIEWRNLILEENALGDHSRVERIATEKLQMQHVDPSQENIVVQK
On to B1, for which the stoichiometry N is 1.
